Substrate in test [1]: ICOS (Homo sapiens (Human)) (UniProt Q9Y6W8)
The experiment in a line: flow cytometry, transfected cells. For orientation: A flow cytometer gives signals particle by particle.

In the next test the target is CD28 (human) (UniProt P10747). Nature of the test: flow cytometry, transfected cells.
The target of test [2] is CTLA-4 (Homo sapiens (Human)) (UniProt P16410). Nature of the test: flow cytometry, transfected cells.
A further test has as its target human PD-1 (human) (UniProt Q15116).

Where a chain is given by its changes, count along the chain named. In names and notes the source's numbering stands.

ICOS (Homo sapiens (Human)), sequence (Q9Y6W8 21-199 limits assumed): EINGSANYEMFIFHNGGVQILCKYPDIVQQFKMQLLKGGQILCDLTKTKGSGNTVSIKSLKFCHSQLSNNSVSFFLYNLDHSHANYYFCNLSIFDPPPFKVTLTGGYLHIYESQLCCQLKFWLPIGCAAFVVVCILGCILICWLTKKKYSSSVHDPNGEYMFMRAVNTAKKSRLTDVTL
CTLA-4 (Homo sapiens (Human)), sequence (P16410 36-223): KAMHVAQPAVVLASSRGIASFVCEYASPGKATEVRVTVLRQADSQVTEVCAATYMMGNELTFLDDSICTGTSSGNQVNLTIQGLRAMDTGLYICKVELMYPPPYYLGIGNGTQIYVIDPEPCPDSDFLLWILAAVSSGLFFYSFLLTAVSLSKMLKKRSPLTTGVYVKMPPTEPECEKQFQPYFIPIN
human PD-1 (human), sequence (Q15116 25-288): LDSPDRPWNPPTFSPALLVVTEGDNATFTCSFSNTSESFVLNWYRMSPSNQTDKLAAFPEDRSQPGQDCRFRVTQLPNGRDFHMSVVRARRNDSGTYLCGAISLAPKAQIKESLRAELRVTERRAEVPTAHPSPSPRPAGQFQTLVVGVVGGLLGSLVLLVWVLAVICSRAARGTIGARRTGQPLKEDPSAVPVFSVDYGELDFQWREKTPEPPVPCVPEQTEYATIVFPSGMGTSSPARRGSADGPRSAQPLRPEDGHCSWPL

B1: ICOSL ECD-Fc N84Q/N119Q/N207Q (Fc fusion)
chain: DTQEKEVRAMVGSDVELSCACPEGSRFDLNDVYVYWQTSESKTVVTYHIPQNSSLENVDSRYRNRALMSPAGMLRGDFSLRLFQVTPQDEQKFHCLVLSQSLGFQEVLSVEVTLHVAAQFSVPVVSAPHSPSQDELTFTCTSINGYPRPNVYWINKTDNSLLDQALQNDTVFLNMRGLYDVVSVLRIARTPSVNIGCCIENVLLQQQLTVGSQTGNDIGERDKITENPVSTGEKNAAT
With B1, the figures for the MFI (in test [1]; with CD28 (human); in test [2]) were 21400 MFI, 569 MFI and 640 MFI, respectively. Also, the MFI parental ratio worked out at 0.58 fold in test [1], 0.38 fold in the test with CD28 (human) and 0.17 fold in test [2].

B2: ICOSL-Fc N52S/N57L/Q100S (Fc fusion)
chain: B1 chain with N52S, N57L, Q84N, Q100S, Q119N, Q207N
For the molecule B2, the MFI in test [1] is 269000 MFI; with CD28 (human), 108000 MFI; in test [2] it was 197000 MFI. Moreover, the MFI ratio to WT (ΔWT) in test [1] amounted to 1.27 fold; with CD28 (human), 4.8 fold; in test [2], 0.6 fold.

B3: ICOSL-Fc N52L/N57H/Q100R (Fc fusion)
chain: B1 chain with N52L, N57H, Q84N, Q100R, Q119N, Q207N
Regarding B3, the MFI is 250000 MFI in test [1], 141000 MFI in the test with CD28 (human) and 353000 MFI in test [2]. For the same molecule, the MFI ratio to WT (ΔWT) in test [1] was determined as 1.18 fold; with CD28 (human), 6.3 fold; in test [2], 1.07 fold.

B4: ICOSL-Fc N52R/N57L/Q100S (Fc fusion)
chain: B1 chain with N52R, N57L, Q84N, Q100S, Q119N, Q207N
For the molecule B4, the MFI is 231000 MFI in test [1], 112000 MFI with CD28 (human) and 289000 MFI in test [2]. Besides, the MFI ratio to WT (ΔWT) in test [1] was 1.09 fold; with CD28 (human), 5 fold; in test [2], 0.88 fold.

B5: ICOSL-Fc N52S/N57Y/Q100V (Fc fusion)
chain: B1 chain with N52S, N57Y, Q84N, Q100V, Q119N, Q207N
On to B5, for which the figures for the MFI (in test [1]; with CD28 (human); in test [2]) were 219000 MFI, 126000 MFI and 305000 MFI, respectively. The MFI ratio to WT (ΔWT) was 1.03 fold in test [1], 5.7 fold with CD28 (human) and 0.92 fold in test [2].

B6: ICOSL ECD-Fc N52Q/N84Q/N119Q/N168Q (Fc fusion)
chain: B1 chain with N52Q, N168Q, Q207N
For B6, the MFI in test [2] worked out at 3300 MFI.

B7: ICOSL-Fc N52S/N57Y/Q100M (Fc fusion)
chain: B1 chain with N52S, N57Y, Q84N, Q100M, Q119N, Q207N
Turning to B7, the MFI in test [1] turned out to be 303000 MFI; in the test with CD28 (human) it was 157000 MFI; in test [2] it was 395000 MFI. Further, the MFI ratio to WT (ΔWT) in test [1] was determined as 1.43 fold; with CD28 (human), 7 fold; in test [2] it was 1.2 fold.

B8: ICOSL-Fc N52S/N57M/Q100S (Fc fusion)
chain: B1 chain with N52S, N57M, Q84N, Q100S, Q119N, Q207N
B8: the MFI is 312000 MFI in test [1], 134000 MFI with CD28 (human) and 228000 MFI in test [2]. The MFI ratio to WT (ΔWT) in test [1] stood at 1.47 fold; in the test with CD28 (human) it was 6 fold; in test [2] it was 0.69 fold.

B9: ICOSL-Fc N52R/N57F/Q100T (Fc fusion)
chain: B1 chain with N52R, N57F, Q84N, Q100T, Q119N, Q207N
For B9, the MFI came out at 270000 MFI in test [1], 127000 MFI with CD28 (human) and 358000 MFI in test [2]. Further, the MFI ratio to WT (ΔWT) in test [1] is 1.27 fold; with CD28 (human), 5.7 fold; in test [2], 1.08 fold.

B10: ICOSL-Fc N52Q/N57S/Q100A (Fc fusion)
chain: B1 chain with N52Q, N57S, Q84N, Q100A, Q119N, Q207N
On to B10, for which the MFI in test [1] was 263000 MFI; with CD28 (human), 91300 MFI; in test [2] it was 315000 MFI. Besides, the MFI ratio to WT (ΔWT) in test [1] was 1.24 fold; with CD28 (human), 4.1 fold; in test [2], 0.95 fold.

B11: ICOSL-Fc N52A/N57H/Q100S (Fc fusion)
chain: B1 chain with N52A, N57H, Q84N, Q100S, Q119N, Q207N
B11: the MFI is 305000 MFI in test [1], 159000 MFI with CD28 (human) and 321000 MFI in test [2]. In addition, the MFI ratio to WT (ΔWT) in test [1] came to 1.44 fold; with CD28 (human) it was 7.1 fold; in test [2], 0.97 fold.

B12: ICOSL-Fc N52S/N57H/Q100E (Fc fusion)
chain: B1 chain with N52S, N57H, Q84N, Q100E, Q119N, Q207N
Consider B12, for which the MFI is 258000 MFI in test [1], 117000 MFI with CD28 (human) and 302000 MFI in test [2]. Besides, the MFI ratio to WT (ΔWT) in test [1] was found to be 1.22 fold; in the test with CD28 (human), 5.2 fold; in test [2], 0.92 fold.

B13: ICOSL-Fc N52R/N57Y/Q100S (Fc fusion)
chain: B1 chain with N52R, N57Y, Q84N, Q100S, Q119N, Q207N
As to B13, the MFI in test [1] worked out at 229000 MFI; with CD28 (human), 133000 MFI; in test [2], 504000 MFI. Besides, the MFI ratio to WT (ΔWT) in test [1] was 1.08 fold; with CD28 (human) it was 6 fold; in test [2], 1.53 fold.

B14: ICOSL-Fc N52A/N57F/Q100S (Fc fusion)
chain: B1 chain with N52A, N57F, Q84N, Q100S, Q119N, Q207N
On to B14, for which the MFI came to 242000 MFI in test [1], 157000 MFI with CD28 (human) and 255000 MFI in test [2]. Besides, the MFI ratio to WT (ΔWT) in test [1] came out at 1.14 fold; in the test with CD28 (human) it was 7 fold; in test [2] it was 0.77 fold.

B15: ICOSL-Fc N52R/N57L/Q100A (Fc fusion)
chain: B1 chain with N52R, N57L, Q84N, Q100A, Q119N, Q207N
Consider B15, for which the MFI is 308000 MFI in test [1], 119000 MFI with CD28 (human) and 403000 MFI in test [2]. The MFI ratio to WT (ΔWT) is 1.45 fold in test [1], 5.3 fold with CD28 (human) and 1.22 fold in test [2].

B16: ICOSL-Fc N52T/N57H/Q100S (Fc fusion)
chain: B1 chain with N52T, N57H, Q84N, Q100S, Q119N, Q207N
For B16, the MFI in test [1] came to 259000 MFI; in the test with CD28 (human), 143000 MFI; in test [2], 378000 MFI. For the same molecule, the MFI ratio to WT (ΔWT) in test [1] stood at 1.22 fold; in the test with CD28 (human) it was 6.4 fold; in test [2] it was 1.14 fold.

B17: ICOSL-Fc N52K/N57Y/Q100R (Fc fusion)
chain: B1 chain with N52K, N57Y, Q84N, Q100R, Q119N, Q207N
For the molecule B17, the values for the MFI (in test [1]; with CD28 (human); in test [2]) were 199000 MFI, 141000 MFI and 233000 MFI, respectively. Also, the MFI ratio to WT (ΔWT) worked out at 0.94 fold in test [1], 6.3 fold with CD28 (human) and 0.71 fold in test [2].

B18: ICOSL-Fc N52R/N57W/Q100K (Fc fusion)
chain: B1 chain with N52R, N57W, Q84N, Q100K, Q119N, Q207N
As for B18, the MFI in test [1] is 349000 MFI; in the test with CD28 (human), 131000 MFI; in test [2], 477000 MFI. The MFI ratio to WT (ΔWT) in test [1] came to 1.65 fold; with CD28 (human), 5.9 fold; in test [2] it was 1.44 fold.

B19: ICOSL-Fc N52A/N57Y/Q100A (Fc fusion)
chain: B1 chain with N52A, N57Y, Q84N, Q100A, Q119N, Q207N
Turning to B19, the MFI was 261000 MFI in test [1], 147000 MFI with CD28 (human) and 320000 MFI in test [2]. The MFI ratio to WT (ΔWT) in test [1] amounted to 1.23 fold; in the test with CD28 (human), 6.6 fold; in test [2], 0.97 fold.

B20: ICOSL-Fc N52Q/N57F (Fc fusion)
chain: B1 chain with N52Q, N57F, Q84N, Q119N, Q207N
Consider B20, for which the MFI was 192000 MFI in test [1], 131000 MFI with CD28 (human) and 367000 MFI in test [2]. The values for the MFI ratio to WT (ΔWT) (in test [1]; in the test with CD28 (human); in test [2]) were 0.91 fold, 5.9 fold and 1.11 fold, respectively.

B21: ICOSL-Fc N52T/N57H/Q100A (Fc fusion)
chain: B1 chain with N52T, N57H, Q84N, Q100A, Q119N, Q207N
On to B21, for which the MFI in test [1] turned out to be 220000 MFI; in the test with CD28 (human) it was 113000 MFI; in test [2], 350000 MFI. Besides, the MFI ratio to WT (ΔWT) was 1.04 fold in test [1], 5 fold with CD28 (human) and 1.06 fold in test [2].

B22: ICOSL-Fc N52M/N57W/Q100P (Fc fusion)
chain: B1 chain with N52M, N57W, Q84N, Q100P, Q119N, Q207N
As to B22, the MFI worked out at 322000 MFI in test [1], 168000 MFI with CD28 (human) and 343000 MFI in test [2]. Besides, the results for the MFI ratio to WT (ΔWT) (in test [1]; with CD28 (human); in test [2]) were 1.52 fold, 7.5 fold and 1.04 fold, respectively.

B23: ICOSL-Fc N52M/N57H/Q100S (Fc fusion)
chain: B1 chain with N52M, N57H, Q84N, Q100S, Q119N, Q207N
For the molecule B23, the MFI in test [1] is 266000 MFI; with CD28 (human) it was 115000 MFI; in test [2] it was 463000 MFI. Further, the MFI ratio to WT (ΔWT) in test [1] was determined as 1.25 fold; with CD28 (human), 5.1 fold; in test [2], 1.4 fold.

B24: ICOSL-Fc N52S/N57Y/Q100S (Fc fusion)
chain: B1 chain with N52S, N57Y, Q84N, Q100S, Q119N, Q207N
On to B24, for which the MFI in test [1] was determined as 224000 MFI; with CD28 (human) it was 161000 MFI; in test [2], 205000 MFI. Also, the figures for the MFI ratio to WT (ΔWT) (in test [1]; in the test with CD28 (human); in test [2]) were 1.06 fold, 7.2 fold and 0.62 fold, respectively.

B25: variant PD-L2 IgV H15Q/T47A/S67L/R76G/Q82R/V89D Fc fusion (Fc fusion)
chain: LFTVTVPKELYIIEQGSNVTLECNFDTGSHVNLGAITASLQKVENDASPHRERATLLEEQLPLGKALFHIPQVQVGDEGQYRCIIIYGDAWDYKYLTLKVKA
With B25, the IFN gamma levels pg/mL (MLR) with human PD-1 (human) turned out to be 1100 pg/mL.

B26: variant PD-L2 IgV I13V/H15Q/T47A/S67L/Q72H/R76G/Q82R/V89D Fc fusion (Fc fusion)
chain: B25 chain with I13V, Q72H
With B26, the IFN gamma levels pg/mL (MLR) with human PD-1 (human) stood at 1560 pg/mL.
